# Source: patent publication US20260167959A1, “APTAZYME-BASED REGULATABLE GENE EXPRESSION SYSTEMS” (REJUVENATE BIO INC, priority 2022, published 2026)
# System: Renilla luciferase RNA
# Test: Barcoded aptazyme variant library screen: un-cleaved Renilla luciferase RNA by barcode read counts, HEK293-T cells
# Assay type: cell-based
# Conditions: un-cleaved Renilla luciferase RNA, HEK293-T cells cultured with 1 mM theophylline (ON) over without theophylline (OFF); barcode read counts, triplicate
# Excerpt: Based on the findings from Example 1, an aptazyme variant library was generated from the T3H48 ribozyme with one of seven variant theophylline aptamers inserted sequentially after each nucleotide of the DNA sequence encoding the T3H48 ribozyme sequence. […] The seven variant theophylline aptamers vary in their communication channels, which are the ribonucleotides of the aptamer that attach to the ribozyme sequence (see, Table 2).
# The library was barcoded with unique sequences of nine nucleotides flanked by forward and reverse primer amplification sequences.
# The aptazyme library was then PCR amplified and cloned into the psiCHECK™-2 dual luciferase vector in the 3′ UTR of the Renilla luciferase gene. […] The next day, the cells were isolated followed by DNA and RNA extraction using standard methods. The purified RNA was then converted to cDNA and the barcoded portion of the aptazyme library was PCR amplified. Similarly, the DNA was PCR amplified and all the samples were sequenced. All experimental conditions (with theophylline and without theophylline) were performed in triplicate. The read count for each barcode was determined with a custom build code and the data was normalized to identify the un-cleaved fractions of the Renilla luciferase RNA from cells that were cultured in the presence or absence of theophylline for each aptazyme, which was used to obtain the fold-change between ON- and OFF-states (FIG. 2).
row,Molecule,Fold change in RNA expression between the ON state and the OFF state
1,RA215 (DNA GCTGTCACCGGATGTGCTTTCCGGTACGTGAGGTCCGTGAGGACGAAACAGC; expressed or natural sequence),1.2 fold
2,"RA025 (nucleic acid, expressed or natural sequence) DNA: GCGCGTCCCGAGAATACCAGCATCGTCTTGATGCCCTTGGAAGTCTCGTGGATTCGCGGAAACGCGTACATCCAGCTGACGAGTCCCAAATAGGACGAAACGCGC",2.5 fold
3,"RA256 (nucleic acid, expressed or natural sequence) DNA: GCGCGTCCTGGATTCGCGGAAACGCGTACATGAGAATACCAGCATCGTCTTGATGCCCTTGGAAGTCTCCCAGCTGACGAGTCCCAAATAGGACGAAACGCGC",1.1 fold
4,"RA257 (nucleic acid, expressed or natural sequence) DNA: GCGCGTCCTGGATTCGCGGAAACGCCGGAATACCAGCATCGTCTTGATGCCCTTGGAAGTCCGGTACATCCAGCTGACGAGTCCCAAATAGGACGAAACGCGC",1.1 fold
5,"RA026 (nucleic acid, expressed or natural sequence) DNA: GCGCGTCCTGGATTCGCGGAAACGCGTACATCCAGCTGACGAGTCCGAGAATACCAGCATCGTCTTGATGCCCTTGGAAGTCTCGCCAAATAGGACGAAACGCGC",2.4 fold
6,"RA269 (nucleic acid, expressed or natural sequence) DNA: GCGCGTCCTGGATTCGCGGAAACGCGAGAATACCAGCATCGTCTTGATGCCCTTGGAAGTCTTACATCCAGCTGACGAGTCCCAAATAGGACGAAACGCGC",1.0 fold
7,"RA259 (nucleic acid, expressed or natural sequence) DNA: GCGCGTCCTGGATTCGCGGAAACGCGTACATCCAGCTGACGAGTCCCAAATAGGACGAAAAGTGATACCAGCATCGTCTTGATGCCCTTGGCAGCACTCGCGC",1.1 fold
8,"RA252 (nucleic acid, expressed or natural sequence) DNA: GCGCGTCCTGGATTCGCGGAAGTGATACCAGCATCGTCTTGATGCCCTTGGCAGCACTAACGCGTACATCCAGCTGACGAGTCCCAAATAGGACGAAACGCGC",1.1 fold
9,"RA266 (nucleic acid, expressed or natural sequence) DNA: GCGCGTCCTGGATTCGCGGAAACGCGCGAGAATACCAGCATCGTCTTGATGCCCTTGGAAGTCTCGTACATCCAGCTGACGAGTCCCAAATAGGACGAAACGCGC",1.0 fold
10,"RA251 (nucleic acid, expressed or natural sequence) DNA: GCGCGTCCTGGACCGGAATACCAGCATCGTCTTGATGCCCTTGGAAGTCCGGTTCGCGGAAACGCGTACATCCAGCTGACGAGTCCCAAATAGGACGAAACGCGC",1.1 fold
11,"RA254 (nucleic acid, expressed or natural sequence) DNA: GCGCGTCCTGGATTCGCGGAAACGCGTACATCCAGCAGAATACCAGCATCGTCTTGATGCCCTTGGAAGTCTTGACGAGTCCCAAATAGGACGAAACGCGC",1.1 fold
12,"RA255 (nucleic acid, expressed or natural sequence) DNA: GCGCGTCCTGGATTCGCGGAAACGCGTACATCCAGCTGACGAGTCCCAAATAGGACGAAACCGGAATACCAGCATCGTCTTGATGCCCTTGGAAGTCCGGCGCGC",1.1 fold
13,"RA272 (nucleic acid, expressed or natural sequence) DNA: GCGCGTCCTGGATTCGCGGAAACGCGTACATCCAGCTGACGAGTCCCAAATAGGACGAAACGCGCAGAATACCAGCATCGTCTTGATGCCCTTGGAAGTCT",1.0 fold
14,"RA267 (nucleic acid, expressed or natural sequence) DNA: GCGCGTCCTGGATTCGCGGAAACGCGTACATCCAGCTGACGAGTGGAATACCAGCATCGTCTTGATGCCCTTGGAAGTCCCCCAAATAGGACGAAACGCGC",1.0 fold
15,"RA261 (nucleic acid, expressed or natural sequence) DNA: GCGCGTCCTGGATTCGCGGAAACGCGTACATCCAGCTGACGAGTCCCAACGAGAATACCAGCATCGTCTTGATGCCCTTGGAAGTCTCGATAGGACGAAACGCGC",1.1 fold
16,"RA271 (nucleic acid, expressed or natural sequence) DNA: GCGCGTCCTGGATTCGCGGAAACGCGTACATCCAGCTGACGAGTCCCAACCGGAATACCAGCATCGTCTTGATGCCCTTGGAAGTCCGGATAGGACGAAACGCGC",1.0 fold
17,"RA260 (nucleic acid, expressed or natural sequence) DNA: GCGCGTCCTGGATTCGCGGAAACGCCGGAATACCAGCATCGTCTTGATGCCCTTGGAAGTCCGGCGTACATCCAGCTGACGAGTCCCAAATAGGACGAAACGCGC",1.1 fold
18,"RA258 (nucleic acid, expressed or natural sequence) DNA: GCGCGTCCTGGATTAGTGATACCAGCATCGTCTTGATGCCCTTGGCAGCACTCGCGGAAACGCGTACATCCAGCTGACGAGTCCCAAATAGGACGAAACGCGC",1.1 fold
19,"RA270 (nucleic acid, expressed or natural sequence) DNA: GCGCGTCCTGGATTCGCGGAAACGCGTACATCCAGCTGACGAGTCCCAAATAGGACGAAGAATACCAGCATCGTCTTGATGCCCTTGGAAGTCTAACGCGC",1.0 fold
20,"RA262 (nucleic acid, expressed or natural sequence) DNA: GCTGTCACCGGAATACCAGCATCGTCTTGATGCCCTTGGAAGTCCGGTCTGATGAGTCCCATAAGGACGAAACAGC",1.1 fold
21,"RA264 (nucleic acid, expressed or natural sequence) DNA: GCGCGTCCTGGATTCGCGGAAACGCGTACATCCAGCTAGAATACCAGCATCGTCTTGATGCCCTTGGAAGTCTGACGAGTCCCAAATAGGACGAAACGCGC",1.0 fold
22,"RA263 (nucleic acid, expressed or natural sequence) DNA: GCGCGTCCTGGATTCGCGGAAACGCGTACATCCAGCTGACGAGTCCCAAAAGTGATACCAGCATCGTCTTGATGCCCTTGGCAGCACTTAGGACGAAACGCGC",1.1 fold
23,"RA253 (nucleic acid, expressed or natural sequence) DNA: GCGCGTCCTGGATTCGCGGAAACGCGTACATGGAATACCAGCATCGTCTTGATGCCCTTGGAAGTCCCCAGCTGACGAGTCCCAAATAGGACGAAACGCGC",1.1 fold
24,"RA265 (nucleic acid, expressed or natural sequence) DNA: GCGCGTCCTGGATTCGCGGAAACGCGTACATCCAGCTGACGAGTCCCAAAGGAATACCAGCATCGTCTTGATGCCCTTGGAAGTCCTAGGACGAAACGCGC",1.0 fold
25,"RA273 (nucleic acid, expressed or natural sequence) DNA: GCGCGTCCTGGATTCGCGGGAATACCAGCATCGTCTTGATGCCCTTGGAAGTCCGAAACGCGTACATCCAGCTGACGAGTCCCAAATAGGACGAAACGCGC",1.0 fold
26,"RA268 (nucleic acid, expressed or natural sequence) DNA: GCGCGTCCTGGATTCGCGGAAACGCGTACATCCAGCTGACGAGTCCCAAATAGGACGAAACGCGGAGAATACCAGCATCGTCTTGATGCCCTTGGAAGTCTCC",1.0 fold
